Source: PMC12208556, “Thrombospondin-1 inhibits alternative complement pathway activation in antineutrophil cytoplasmic antibody-associated vasculitis” (The Journal of Clinical Investigation, 2025)

B1: recombinant full-length thrombospondin-1 (natural protein)
chain: not shown
notes: Thrombospondin-1, human cDNA from Sinobiological (HG10508-UT), subcloned into pFastbac1 behind a gp67 signal peptide for secretion; The gp67 signal peptide stands in place of or before the native one; also called TSP-1; source: Spodoptera frugiperda 9 cells (baculovirus), purified from cell supernatants via Ni-NTA columns; not shown: 10xHis, N-terminal, kept
B2: recombinant full-length thrombospondin-1 (TSP-1) (natural protein)
chain: not shown
notes: Thrombospondin-1, human cDNA (Sinobiological HG10508-UT) subcloned into pFastbac1 with a gp67 signal peptide for secretion and an N-terminal 10xHis tag; called recombinant full-length TSP-1; Secreted through a gp67 signal peptide; also called recombinant TSP-1; source: Spodoptera frugiperda 9 cells (baculovirus), purified from cell supernatants via Ni-NTA columns; not shown: 10xHis, N-terminal, …

Tests used:
Conditions in all cases: both partners purified
complement C8 [1] = molecular target: T1, complement C8 (UniProt P07357 31-584; P07358 55-591; P07360 21-202); test: SPR; BIAcore 3000; TSP-1 bound covalently to CM5 chips at 0.1 uM; complement proteins as analytes at 12.3, 37.03, 111.1, 333.3, 1,000 nM in PBS plus 0.05% Tween 20; 1:1 Langmuir binding model; average of 3 repeated measurements
T1 construct: source: bought: Complement Technologies; copies: + +
T1 sequence (P07357 31-584, chain 1 of 3): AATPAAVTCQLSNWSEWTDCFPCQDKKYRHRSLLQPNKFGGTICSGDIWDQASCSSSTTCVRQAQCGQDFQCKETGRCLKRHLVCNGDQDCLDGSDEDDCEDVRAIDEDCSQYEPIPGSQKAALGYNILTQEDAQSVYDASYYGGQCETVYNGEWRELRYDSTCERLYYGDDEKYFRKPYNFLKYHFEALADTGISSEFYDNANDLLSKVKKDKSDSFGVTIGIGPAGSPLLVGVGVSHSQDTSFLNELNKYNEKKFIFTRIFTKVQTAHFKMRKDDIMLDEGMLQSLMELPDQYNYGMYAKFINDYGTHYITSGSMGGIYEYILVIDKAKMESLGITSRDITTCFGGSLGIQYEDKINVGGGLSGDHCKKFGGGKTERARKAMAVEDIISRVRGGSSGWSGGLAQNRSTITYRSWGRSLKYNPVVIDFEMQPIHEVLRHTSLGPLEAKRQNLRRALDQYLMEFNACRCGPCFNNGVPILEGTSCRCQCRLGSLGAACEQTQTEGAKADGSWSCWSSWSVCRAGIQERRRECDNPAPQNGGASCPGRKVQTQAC
T1 sequence (P07358 55-591, chain 2 of 3): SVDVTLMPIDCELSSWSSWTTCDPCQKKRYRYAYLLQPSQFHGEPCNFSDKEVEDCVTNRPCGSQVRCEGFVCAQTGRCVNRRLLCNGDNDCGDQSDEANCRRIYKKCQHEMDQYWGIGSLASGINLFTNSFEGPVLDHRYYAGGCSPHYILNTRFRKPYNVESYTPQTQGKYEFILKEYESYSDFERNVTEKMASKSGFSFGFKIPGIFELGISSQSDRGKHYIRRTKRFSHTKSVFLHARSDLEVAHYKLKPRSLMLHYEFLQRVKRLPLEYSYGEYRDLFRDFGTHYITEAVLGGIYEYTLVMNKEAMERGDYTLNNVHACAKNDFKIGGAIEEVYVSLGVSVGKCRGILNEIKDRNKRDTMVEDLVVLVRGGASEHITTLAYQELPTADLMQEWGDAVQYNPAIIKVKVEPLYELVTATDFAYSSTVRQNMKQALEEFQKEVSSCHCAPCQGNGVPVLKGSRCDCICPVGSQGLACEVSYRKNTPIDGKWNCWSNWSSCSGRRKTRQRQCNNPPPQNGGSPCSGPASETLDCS
T1 sequence (P07360 21-202, chain 3 of 3): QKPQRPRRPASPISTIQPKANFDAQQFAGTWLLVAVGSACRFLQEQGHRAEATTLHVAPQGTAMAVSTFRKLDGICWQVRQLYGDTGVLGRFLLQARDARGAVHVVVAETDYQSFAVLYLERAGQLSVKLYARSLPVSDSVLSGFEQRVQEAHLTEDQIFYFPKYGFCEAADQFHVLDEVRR

complement factor H = molecular target: T2, complement factor H (UniProt P08603 19-1231); test: as above
T2 construct: Complement factor H; also called FH; source: bought: Complement Technologies

complement factor H (FH) = molecular target: T3, complement factor H (FH) (UniProt P08603 19-1231); test: SPR; BIAcore 3000; TSP-1 bound covalently to CM5 chips at 0.1 μM; complement proteins flowed at 12.3, 37.03, 111.1, 333.3, 1,000 nM in PBS plus 0.05% Tween 20; 1:1 Langmuir binding model; average of 3 measurements
T3 construct: Complement factor H, obtained from Complement Technologies; source: bought: Complement Technologies

complement C8 [2] = molecular target: T4, complement C8 (UniProt P07357 31-584; P07358 55-591; P07360 21-202); test: as above
T4 construct: Complement component C8 alpha chain; Complement component C8 beta chain; Complement component C8 gamma chain; source: bought: Complement Technologies; copies: + +
T4 sequence (P07357 31-584, chain 1 of 3): as the sequence (P07357 31-584, chain 1 of 3) above
T4 sequence (P07358 55-591, chain 2 of 3): as the sequence (P07358 55-591, chain 2 of 3) above
T4 sequence (P07360 21-202, chain 3 of 3): as the sequence (P07360 21-202, chain 3 of 3) above

complement C5 = molecular target: T5, complement C5 (UniProt P01031 19-673; P01031 678-1676); test: as above
T5 construct: Complement C5 beta chain; Complement C5 alpha chain; source: bought: Complement Technologies

complement C3 = molecular target: T6, complement C3 (UniProt P01024 23-667; P01024 672-1663); test: as above
T6 construct: Complement C3 beta chain (75 kDa), cut from the C3 precursor; Complement C3 alpha chain (110 kDa), cut from the C3 precursor; source: bought: Complement Technologies
T6 sequence (P01024 23-667, chain 1 of 2): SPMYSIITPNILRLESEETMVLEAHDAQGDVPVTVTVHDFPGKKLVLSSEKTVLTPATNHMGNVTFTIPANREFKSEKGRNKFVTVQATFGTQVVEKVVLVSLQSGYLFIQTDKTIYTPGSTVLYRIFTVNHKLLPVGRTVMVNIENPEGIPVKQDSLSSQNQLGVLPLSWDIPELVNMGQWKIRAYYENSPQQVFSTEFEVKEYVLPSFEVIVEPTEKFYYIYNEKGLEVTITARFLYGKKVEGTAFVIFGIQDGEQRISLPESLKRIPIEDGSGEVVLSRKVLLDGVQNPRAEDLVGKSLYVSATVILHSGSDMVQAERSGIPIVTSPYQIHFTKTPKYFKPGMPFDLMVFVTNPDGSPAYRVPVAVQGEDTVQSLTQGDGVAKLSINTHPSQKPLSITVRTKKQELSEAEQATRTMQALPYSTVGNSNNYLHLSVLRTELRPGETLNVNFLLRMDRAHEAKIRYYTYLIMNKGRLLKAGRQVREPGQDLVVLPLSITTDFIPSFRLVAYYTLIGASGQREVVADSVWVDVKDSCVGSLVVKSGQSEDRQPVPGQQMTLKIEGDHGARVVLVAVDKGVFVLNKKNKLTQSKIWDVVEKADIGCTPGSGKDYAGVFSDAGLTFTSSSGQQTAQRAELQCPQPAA
T6 sequence (P01024 672-1663, chain 2 of 2): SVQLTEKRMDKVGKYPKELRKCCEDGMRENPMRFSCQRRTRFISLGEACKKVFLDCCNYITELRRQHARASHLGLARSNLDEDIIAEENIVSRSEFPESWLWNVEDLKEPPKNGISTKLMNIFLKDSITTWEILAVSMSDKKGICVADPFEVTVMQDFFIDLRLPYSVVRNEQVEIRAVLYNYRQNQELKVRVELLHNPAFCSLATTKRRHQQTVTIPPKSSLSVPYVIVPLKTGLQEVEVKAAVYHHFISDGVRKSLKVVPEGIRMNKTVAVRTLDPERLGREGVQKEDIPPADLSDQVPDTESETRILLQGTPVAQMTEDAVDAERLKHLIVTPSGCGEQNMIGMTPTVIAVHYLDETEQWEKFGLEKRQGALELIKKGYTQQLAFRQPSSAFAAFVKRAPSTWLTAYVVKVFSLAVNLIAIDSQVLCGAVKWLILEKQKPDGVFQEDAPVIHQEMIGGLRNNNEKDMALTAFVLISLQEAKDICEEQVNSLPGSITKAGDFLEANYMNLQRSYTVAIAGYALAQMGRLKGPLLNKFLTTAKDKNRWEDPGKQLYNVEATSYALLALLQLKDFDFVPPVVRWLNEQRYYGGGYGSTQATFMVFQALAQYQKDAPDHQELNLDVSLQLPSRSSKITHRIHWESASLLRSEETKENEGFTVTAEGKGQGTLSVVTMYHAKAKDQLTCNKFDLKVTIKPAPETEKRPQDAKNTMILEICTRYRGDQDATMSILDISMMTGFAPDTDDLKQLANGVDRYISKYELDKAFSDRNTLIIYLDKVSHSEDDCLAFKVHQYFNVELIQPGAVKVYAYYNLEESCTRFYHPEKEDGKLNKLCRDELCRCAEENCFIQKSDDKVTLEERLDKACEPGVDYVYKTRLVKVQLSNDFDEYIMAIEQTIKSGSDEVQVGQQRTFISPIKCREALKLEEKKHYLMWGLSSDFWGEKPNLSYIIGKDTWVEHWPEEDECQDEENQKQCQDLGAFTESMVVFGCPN

T5 sequence (P01031 19-673, chain 1 of 2): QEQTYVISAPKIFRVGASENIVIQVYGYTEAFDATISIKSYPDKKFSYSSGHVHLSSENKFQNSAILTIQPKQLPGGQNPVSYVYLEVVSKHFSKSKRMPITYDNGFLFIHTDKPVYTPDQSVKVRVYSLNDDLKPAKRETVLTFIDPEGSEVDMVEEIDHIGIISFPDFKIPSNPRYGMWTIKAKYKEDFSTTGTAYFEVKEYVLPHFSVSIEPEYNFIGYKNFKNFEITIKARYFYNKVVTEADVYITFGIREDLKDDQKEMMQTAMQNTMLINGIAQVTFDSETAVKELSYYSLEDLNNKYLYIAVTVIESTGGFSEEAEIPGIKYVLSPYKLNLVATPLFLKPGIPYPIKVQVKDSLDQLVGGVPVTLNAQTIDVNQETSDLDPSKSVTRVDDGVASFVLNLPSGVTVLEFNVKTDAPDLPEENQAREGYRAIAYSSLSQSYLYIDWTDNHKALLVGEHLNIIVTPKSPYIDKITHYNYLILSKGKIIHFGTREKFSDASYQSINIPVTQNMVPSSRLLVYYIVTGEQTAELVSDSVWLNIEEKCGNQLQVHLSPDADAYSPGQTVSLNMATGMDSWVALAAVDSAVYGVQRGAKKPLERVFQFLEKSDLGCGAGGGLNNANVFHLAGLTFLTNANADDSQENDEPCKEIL
T5 sequence (P01031 678-1676, chain 2 of 2): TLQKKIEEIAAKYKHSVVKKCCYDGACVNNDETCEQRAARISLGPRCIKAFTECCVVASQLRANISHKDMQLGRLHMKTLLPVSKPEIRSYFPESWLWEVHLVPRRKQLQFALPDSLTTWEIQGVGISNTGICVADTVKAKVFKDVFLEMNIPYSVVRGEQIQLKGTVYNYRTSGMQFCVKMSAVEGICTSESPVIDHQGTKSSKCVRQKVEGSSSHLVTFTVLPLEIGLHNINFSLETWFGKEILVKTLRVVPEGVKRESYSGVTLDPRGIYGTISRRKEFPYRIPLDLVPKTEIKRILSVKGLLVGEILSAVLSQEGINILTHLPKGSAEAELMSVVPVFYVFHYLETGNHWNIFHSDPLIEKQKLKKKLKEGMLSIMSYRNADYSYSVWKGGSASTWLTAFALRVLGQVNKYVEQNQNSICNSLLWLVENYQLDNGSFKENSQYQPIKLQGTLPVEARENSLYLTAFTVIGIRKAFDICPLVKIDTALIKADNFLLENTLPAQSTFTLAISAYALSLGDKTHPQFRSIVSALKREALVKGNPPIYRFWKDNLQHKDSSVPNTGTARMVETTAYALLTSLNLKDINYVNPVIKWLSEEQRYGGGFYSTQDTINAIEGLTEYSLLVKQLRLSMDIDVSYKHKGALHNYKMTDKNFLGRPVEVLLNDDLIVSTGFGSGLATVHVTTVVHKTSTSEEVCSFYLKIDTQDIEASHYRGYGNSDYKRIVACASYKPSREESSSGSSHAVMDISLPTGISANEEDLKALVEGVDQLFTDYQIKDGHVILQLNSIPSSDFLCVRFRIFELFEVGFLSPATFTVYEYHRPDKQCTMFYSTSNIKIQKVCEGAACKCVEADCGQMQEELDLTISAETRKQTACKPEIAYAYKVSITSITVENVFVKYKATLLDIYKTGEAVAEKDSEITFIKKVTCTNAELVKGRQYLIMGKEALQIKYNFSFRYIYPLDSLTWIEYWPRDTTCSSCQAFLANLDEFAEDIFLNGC

Binder	Kd (complement C8 [1]) [nM]	Kd (complement factor H) [nM]	Kd (complement factor H (FH)) [nM]	Kd (complement C8 [2]) [nM]	Kd (complement C5) [nM]	Kd (complement C3) [nM]
B1	310	203				
B2			203	311	47	127
